The subject of data set [1] is rabbit anti-mouse IgG antibody (Oryctolagus cuniculus). Briefly: SPR. The note with it: RNA with 5' A24 extension captured on biotin-dT24 SA chip; 25 C.
The subject of a further data set is goat IgG (Capra hircus). The data set can be described thus: filter. The note with it: specificity control, 100 nM protein.
For another data set, the system named is mouse IgG (Mus musculus). The data set can be described thus: filter. The note with it: specificity control, 100 nM protein.
Data set [2] relates to rabbit anti-GST IgG + glutathione-S-transferase (mixture) (Oryctolagus cuniculus / Schistosoma japonicum). Briefly: filter. Particulars: 100 nM GST + 100 nM anti-GST IgG.
Data set [3] relates to rabbit anti-GST antibody (IgG) (Oryctolagus cuniculus). Briefly: filter. The note with it: 20 nM RNA, 100 nM protein.
For data set [4], the system named is rabbit anti-mouse IgG antibody (Oryctolagus cuniculus). The data set can be described thus: filter. The note with it: 20 nM RNA, 100 nM protein, 5 mM MgCl2, RT.
Data set [5] concerns the target glutathione-S-transferase (GST) (Schistosoma japonicum, UniProt P08515 P08515:2-218). The data set can be described thus: filter; specificity control, 100 nM protein. The note with it: tags: prepared in laboratory from GE vector; chain copies: 2; label: 32P (filter assay). As for the experimental part: (§1) The RNAs (20 nM) set forth in SEQ ID NOS: 1 to 5, and the materials (100 nM each) shown in “Material List” below, were incubated in a binding buffer, and then, their binding strength was measured in accordance with the methods described in “Radiolabeling” and “Binding Experiment” below.
(§2) The resulting mixture was introduced onto a filter (trade name: MF-membrane filter, manufactured by Millipore) by way of suctioning it with a suction device, and then, the filter was washed with a binding buffer that was 20 times the volume of the mixture. The radiation intensity of the filter obtained in this manner was measured with a Bio-Imaging Analyzer BAS-2500 (using, as an imaging plate, BAS-MS2040 manufactured by Fuji Film Co., Ltd.) manufactured by Fuji Film Co., Ltd. The radiation intensity was visualized with Image Reader (Fuji Film Co., Ltd.), and the obtained data were converted into numerical values with Image Gauge ver. 4.0 (Fuji Film Co., Ltd.).

Another data set addresses bovine serum albumin (Bos taurus, UniProt P02769 P02769:25-607). Briefly: filter; specificity control, 100 nM protein; buffer only 0.3%. Particulars: tags: SIGMA; label: 32P (filter assay). The method, then:
as §1, §2

Results on ten molecules are retold here after US20100222559, “NUCLEIC ACID MOLECULE CAPABLE OF BINDING TO RABBIT-DERIVED lgG ANTIBODY” (published 2010).

What is called Kd is the concentration at which binding is half-saturated. Read a low Kd as a tighter complex.

glutathione-S-transferase (GST), sequence (P08515 2-218, one chain of several): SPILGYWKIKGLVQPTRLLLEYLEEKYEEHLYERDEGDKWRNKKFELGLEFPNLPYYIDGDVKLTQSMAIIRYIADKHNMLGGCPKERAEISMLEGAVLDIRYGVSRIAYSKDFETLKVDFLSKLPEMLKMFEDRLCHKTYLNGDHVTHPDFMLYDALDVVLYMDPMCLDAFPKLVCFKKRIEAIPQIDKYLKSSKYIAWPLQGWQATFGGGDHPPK
bovine serum albumin, sequence (P02769 25-607, one chain of several): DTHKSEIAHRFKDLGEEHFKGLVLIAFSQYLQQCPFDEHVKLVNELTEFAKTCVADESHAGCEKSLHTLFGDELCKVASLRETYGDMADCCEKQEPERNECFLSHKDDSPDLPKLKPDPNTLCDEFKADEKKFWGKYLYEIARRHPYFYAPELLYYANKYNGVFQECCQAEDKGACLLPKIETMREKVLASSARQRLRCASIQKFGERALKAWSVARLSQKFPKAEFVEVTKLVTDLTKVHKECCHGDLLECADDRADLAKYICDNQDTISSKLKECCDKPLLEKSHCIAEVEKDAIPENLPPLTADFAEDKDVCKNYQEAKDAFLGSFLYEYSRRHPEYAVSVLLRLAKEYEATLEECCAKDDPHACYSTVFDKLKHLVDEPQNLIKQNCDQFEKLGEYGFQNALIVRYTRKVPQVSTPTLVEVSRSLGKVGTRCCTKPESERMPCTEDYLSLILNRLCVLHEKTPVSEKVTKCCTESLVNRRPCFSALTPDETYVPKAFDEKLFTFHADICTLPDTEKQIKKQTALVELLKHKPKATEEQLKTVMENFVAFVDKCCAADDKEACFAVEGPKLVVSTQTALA

“GGGAGAAUUCCGACCAGAAGUUCGAUACGCCGUGGGGUGACGUUGGCUACCUUUCCUCUCUCCUCCUUCUUCU [SEQ ID NO: 5 RNA aptamer]” came in with a Kd in data set [1] of 0.0147 nM. Besides, the binding signal with goat IgG (Capra hircus) stood at 0.3 % bound; with mouse IgG (Mus musculus) it was 0.5 % bound; in data set [2] it was 48.8 % bound; in data set [3] (buffer only 0.3%), 58.1 % bound; in data set [4] it was 58.1 % bound.

In data set [1], “GGGAGAAUUCCGACCAGAAGCAAAUUGCCGGGCCUUGGAAGCCAAGUCGCUUUCCUCUCUCCUCCUUCUUCU [SEQ ID NO: 3 RNA aptamer]” yielded a dissociation constant (Kd) of 118 nM. Also, the binding signal in the data set on goat IgG (Capra hircus) turned out to be 1 % bound; in the data set with mouse IgG (Mus musculus), 1.8 % bound; in data set [2], 14.4 % bound; in data set [3] (buffer only 0.3%), 20.9 % bound; in data set [4], 20.9 % bound.

“GGGAGAAUUCCGACCAGAAGCGCAAGCCGGCCCUUGGAAGGCUAGUCGGUCUUUCCUCUCUCCUCCUUCUUCU [SEQ ID NO: 4 RNA aptamer]” returned an equilibrium dissociation constant (Kd) in data set [1] of 103 nM. The binding signal in the data set with goat IgG (Capra hircus) was 0.3 % bound; in the data set on mouse IgG (Mus musculus), 0.5 % bound; in data set [2] it was 20.7 % bound; in data set [3] (buffer only 0.3%), 23.4 % bound; in data set [4], 23.4 % bound.

For “GGGAGAAUUCCGACCAGAAGUUUUUAAACCGCGCCUUGGAAGCGUACGUUGGCCUUUCCUCUCUCCUCCUUCUUCU [SEQ ID NO: 2 RNA aptamer]”, in data set [1], the equilibrium dissociation constant (Kd) was 51.5 nM. In addition, the binding signal is 0.7 % bound in the data set with goat IgG (Capra hircus); 0.5 % bound with mouse IgG (Mus musculus); 14.2 % bound in data set [2]; 24.6 % bound in data set [3] (buffer only 0.4%); 24.6 % bound in data set [4].

Regarding “GGGAGAAUUCCGACCAGAAGAAGUUCGAUACGCCGUGGGGUGACGUUGGCUGCCCUUUCCUCUCUCCUCCUUCUUCU [SEQ ID NO: 1 RNA aptamer]”, the Kd in data set [1] was 0.013 nM. The binding signal amounted to 0.8 % bound in the data set with goat IgG (Capra hircus); 0.6 % bound in the data set with mouse IgG (Mus musculus); 13.6 % bound in data set [2]; 19.1 % bound in data set [3] (buffer only 0.2%); 19.1 % bound in data set [4] (50 mM HEPES pH 7.4, 150 mM NaCl).

B1: SEQ ID NO: 1 RNA aptamer (ssRNA)
RNA: GGGAGAAUUCCGACCAGAAGAAGUUCGAUACGCCGUGGGGUGACGUUGGCUGCCCUUUCCUCUCUCCUCCUUCUUCU
B1 returned a binding signal in data set [5] of 0.7 % bound.

B2: SEQ ID NO: 3 RNA aptamer (ssRNA)
RNA: GGGAGAAUUCCGACCAGAAGCAAAUUGCCGGGCCUUGGAAGCCAAGUCGCUUUCCUCUCUCCUCCUUCUUCU
Turning to B2, the binding signal in data set [5] amounted to 0.6 % bound; with bovine serum albumin, 1 % bound.

B3: SEQ ID NO: 5 RNA aptamer (ssRNA)
RNA: GGGAGAAUUCCGACCAGAAGUUCGAUACGCCGUGGGGUGACGUUGGCUACCUUUCCUCUCUCCUCCUUCUUCU
As to B3, the binding signal was 0.6 % bound in data set [5] and 0.9 % bound in the data set with bovine serum albumin.

B4: SEQ ID NO: 4 RNA aptamer (ssRNA)
RNA: GGGAGAAUUCCGACCAGAAGCGCAAGCCGGCCCUUGGAAGGCUAGUCGGUCUUUCCUCUCUCCUCCUUCUUCU
Take B4: the binding signal (in data set [5]; with bovine serum albumin) was 0.4 % bound each time.

B5: SEQ ID NO: 2 RNA aptamer (ssRNA)
RNA: GGGAGAAUUCCGACCAGAAGUUUUUAAACCGCGCCUUGGAAGCGUACGUUGGCCUUUCCUCUCUCCUCCUUCUUCU
Regarding B5, the binding signal in data set [5] is 0.6 % bound.
